Measurements from the supplement of paper PMC12338614.

B1: library; numbered along this chain (parent)
chain: MEVVDPQQLGMFTEGELMSVGMDTFIHRIDSTEVIYQPRRKRAKLIGKYLMGDLLGEGSYGKVKEVLDSETLCRRAVKILKKKKLRRIPNGEANVKKEIQLLRRLRHKNVIQLVDVLYNEEKQKMYMVMEYCVCGMQEMLDSVPEKRFPVCQAHGYFCQLIDGLEYLHSQGIVHKDIKPGNLLLTTGGTLKISDLGVAEALHPFAADDTCRTSQGSPAFQPPEIANGLDTFSGFKVDIWSAGVTLYNITTGLYPFEGDNIYKLFENIGKGSYAIPGDCGPPLSDLLKGMLEYEPAKRFSIRQIRQHSWFRKKHPPAEAPVPIPPSPDTKDRWRSMTVVPYLEDLHGADEDEDLFDIEDDIIYTQDFTVPGQVPEEEASHNGQRRGLPKAVCMNGTEAAQLSTKSRAEGRAPNPARKACSASSKIRRLSACKQQ

Variants of: B1
Experiment: STK11 functional score (HeLa growth suppression), rescaled enrichment; synonymous median = 1, nonsense median = 0 (normalised score)
Settings: with HeLa; variant type: missense
Procedure: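 Deep mutational scan (TileSeq/POPCode codon randomisation) of full-length codon-optimised STK11 cDNA integrated at a Bxb1 landing pad (AAVS1) in HeLa cells. Restoring functional STK11 suppresses HeLa proliferation. Variant frequencies were measured by NGS before and after about two weeks of growth. The error-corrected enrichment log-ratio was rescaled so that synonymous median = 1 and nonsense median = 0, scores above 1 were compressed, and codon-level and three biological replicate scores were combined; error is the bootstrapped standard error. Scale: synonymous median = 1, nonsense median = 0; below 0.5 = damaging.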

STK11 functional score of substitutions, site by site:
I111: V 0.948, P 1.25, G 0.385, F 0.365, R 1.16, W -0.448, Y 0.97, T 0.687, S 0.535, M 0.886, Q 1.66, L 0.392, D 1.6
Q100: V 1.39, T 1.3, Y 0.248, W 0.696
L101: W -0.0513, I 1.06, S 1.43, Q 0.894, R 1.25, Y 1.21, P 0.045, V 0.836, M 1.62
K124: D 0.919, A 1.13
K122: L 1.43, C 1.46, P 1.68, A 1.18, H 1.68, E 0.911, S 1.65, M 1.25, F 1.25, R 1.69, V 0.86, N 1.51, W 1.4, D 1.52, T 1.61, Q 0.235
R106: S 1.49, F 1.56, E 1.63, H 1.62, Y 1.64, L 1.15, T 1.69, A 1.45, V 1.6, I 1.71, G 0.687, M 1.59, P 1.14
V114: D 1.17, F 1.03, C 0.202, L 0.271, W 0.805, S 0.384, T 1.43, Y 1.59, P 0.872, A 0.829, R 0.501
V110: H 0.958, P 0.481, S 0.535, W 0.328, I 0.703, Y 0.623, G 0.297, R -0.0313, N 0.651, T 1.51, L 1.23, D 0.338, E -0.206, C 0.955, A 0.184, M 0.358
Y118: N 0.286, C 0.723, P 1.3, F 0.519, H 1.14, G 1.23, I 1.32, L 0.633, R 1.04, V 0.988, Q 1.52, A 0.627, T 1.61, W 0.378, S 0.99, E -0.175, M 1.62, K 0.568
E120: I 1.55, W 0.626, A 0.817, F 1.52, P 1.42, N 1.68, L 1.38, V 1.09, M 1.11, Q 1.16, R 0.779, Y 0.964, H 1.66, S 1.42, T 1.43, C 0.373, G 1.26
R103: Q 1.27, Y 1.15, K 1.18, I 1, V 0.764, G 0.667, A 1.42, H 1.6, E 1.68, L 0.918, P 0.985, W 0.732, C 1.05, T 1.32, S 1.02
Q112: I 1.52, S 1.1, P 1.24, T 1.27, F 1.11, M 0.897, R 0.64, W 0.604, L 1.08, A 1.24, N 1.55, Y 1.01, G 0.967, V 1.01
L113: W 0.222, G 0.252, V 0.44, Q 1.02, C 1.16, D -0.168, A 0.492, E 1.13, P 0.54, Y 1.67, I 0.313, S 0.517, H 0.781, R 0.684
R104: L 1.4, I 1.23, V 0.88, F 1.19, G 0.389, Q 1.21, Y 0.684, T 1.3, S 0.76, K 1.31, D 0.685
L102: M 0.857, R 0.466, Y 1.2, W 1.2, S 0.447, A 0.777, E 1.51, V 0.912, Q 1.48, D 0.469, F 1.11, G 1.07, I 1.26, T 0.0689, H 1.61
L117: N 1.44, K 1.3, W 1.29, V 0.689, Q 1.33, T 0.762, S 0.291, Y 1.55, G 0.823, A 1.27, R 1.15, H 1.05, E 1.45, P 0.386, F 0.858
D115: R 1.52, L 1.19, V 1.27, N 1.65, G 0.497, S 1.6, E 1.27, P 0.396, M 1.06, W 0.727, Y 0.294
K108: A 1.25, P 1.35, V 0.939, Q 1.39, D 0.31, S 0.866, I 1.43, H 1.26, F 1.04, R 1.33, T 1.33, N 1.29, L 1.1, W 0.834, G 0.95
V116: G 0.415, R 0.888, N 0.962, I 0.327, L 1.14, H 1.18, P 0.975, E 1.52, C 0.415, W 0.541, S 0.887, A 0.197
N119: E 0.994, G 0.965, V 0.707, H 1.3, M 0.408, R 1.26, K 1.18, L 1.17, D 0.736, S 0.694, P 1.37, W 1.58, F 1.16, Y 1.12, A 1.44, I 1.51, T 1.42
Q123: P 0.451, F 0.854, A 1.11, R 0.312, G 0.98, Y 1.01, H 1.11, T 1.27, W 0.588, S 1.49, V 0.961, D 0.981, L 0.679, K 0.3, C 1.35, I 0.581, E 1.15, M 1.6
E121: F 0.824, V 1.41, P 1.66, A 0.765, Q 1.08, T 1.13, N 1.57, D 0.812, S 1.17, I 1.42, W 0.251, L 1.43, G 1.18, R 1.31, M 0.84, Y 1.36, K 0.738
H107: I 0.0231, T 1.02, A 0.964, M 0.523, L 0.324, S 0.803, R 0.205, Y 0.262, W 0.165, F 0.159, E 0.776, P 0.25, V 0.138, G 0.812
N109: T 0.928, M 0.647, I 0.256, Q 0.886, S 0.492, W 0.336, R 0.707, P -0.121, D 0.477, H -0.0132, G 0.374, K 1.14, A 0.625, L 0.662, V 0.132
L105: W 0.397, G 0.712, V 0.842, M 1.18, C 1.53, Y 1.36, I 1.57, R 0.653, S 1.29, D 0.494, A 1.32, P 0.588
